From the RNAGym collection of RNA variant scans (doi:10.1073/pnas.2313332121)
Fewer inactive variants are shown than the library holds.

B1: TPR 5TU (parent)
chain: GGAUCUUCUCGAUCUAACAAAAAAGACAAAUCUGCCACAAAGCUUGAGAGCAUCUUCGGAUGCAGAGGCGGCAGCCUUCGGUGGCGCGAUAGCGCCAACGUUCUCAACUAUGACACGCAAAACGCGUGCUCCGUUGAAUGGAGUUUAUCAUG

Variants of: B1
Assay: polymerase ribozyme fitness, log enrichment relative to wild type (log ratio); higher = more active; in vitro selection for triplet polymerase activity
In short: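 The heterodimeric triplet polymerase ribozyme's subunits were each mutagenized into PCR-built libraries and transcribed. Every library was selected once, in triplicate, by annealing with a biotinylated primer, the partner subunit and triplets, incubating frozen at −7 °C, gel-excising extended constructs, capturing on streptavidin beads and running RT-PCR. Input and output libraries were Illumina-sequenced, with genotypes kept only at ≥10 input reads and ≥1 read per output. Fitness, from inverse-variance-weighted replicate averages, is the base-2 logarithm of genotype enrichment over wild-type enrichment.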

Going from GGAUCUUCUCGAUUUAACAAAAAAGACAAGUCUGCCACAAAGCUUGAGAGCAUCUUCGGAUGCAGAGGCGGCAGCCUUCGAUGGGGCGAUAGCGCCGACGUUCUCAACUAUGACACGCAAAACGCGUGCUCCAUUGAAUGGAGUUUAUCAUG [C14U A30G G81A C85G A97G G133A] to GGAUCUUCUCGAUUUAACAAAGAAGACAAAUCUGCCACAAAGCUUGAGAGCAUCUUCGGAUGCAGAGGCGGCAGCCUUCGGUGGCGCGAUAGCGCCAACGUUCUCAACUAUGACACGCAAAACGCGUGCUCCGUUGAAUGGAGUUUAUCAUG [C14U A22G], the “polymerase ribozyme fitness (log ratio)” value rises from no more than -4.2 to -3.07.

Compared with GGAUCUUCUCGAUUUAACAAAAAAGACAAAUCUGCCCCAAAGCUUGAGAGCAUCUUCGGAUGCAGAGGCGGCAGCCUUCGGUGGCGCGAUAGCGCCAACGUUCUCAACUAUGACACGCAAAACGCGUGCUCCGUUGAAUGGAGUUUAUCAUG [C14U A37C], GGAUCUUCUCGAUUUAACGAAAAAGACAAACCUGCCACCAAGCUUGAGAACAUCUUCGGAUGCAGUGUCGGCAGCCUUCGGUGGCGCGAUAGGGCCAACGUUCUCAACUAUGACACGCAAAACGCGUGCUCCGUUGAAUGGAGUUUAUCAUG [C14U A19G U31C A39C G50A A66U G68U C93G] is lower in “polymerase ribozyme fitness (log ratio)” value: -1.79 for the first, no more than -4.2 for the second.

Going from GGAUCUUCUCGAUGUAACAAAAAAGACAAAUCUGCCACAAAGCUUGAGAGCAACUUCGGAUGCAGAGGCGGCAGCCUUCGGUGGCGCGAUAGCACCAACGUUCUCAACUAUGACACGCAAAACUCGUGCUCCGUUGAAUGGAGUUUAUCAUG [C14G U53A G94A G124U] to GGAUCUUCUCGAUGUAACAAAAAAGACAAAUCUGCCACAAAGCUUGAGAGCAUCCUAGGAUGCAGGGGCGGCAGCCUUCGAUGGUGCGAUAGCGCCAACGUUCUCAACUAUGACACGCAAAACGCGUGCUCCGUUGAAUGGAGUUUAUCAUG [C14G U55C C57A A66G G81A C85U], the “polymerase ribozyme fitness (log ratio)” value falls from -3.37 to no more than -4.2.

GGAUCUUCUCGAUUUAACAAAAAAGGCAAAUCUGCCACAAAGCUUGAGAGCAUCUUCGGAUGCAGAGGCGGCAGCCUUCGGUGGCGCGAUACCGCCAACGUUCUCAACUAUGACACGCAAAACGCGUGCUCCGUUGAAUGGAGUUUAUCAUG [C14U A26G G92C] and GGAUCUUCUCGAUUUAACAAAAAAGACAAAUUUGCCACAAAGCUUGAGAGCAUCUUCGGACGCAGAGGCGGCAGCCUUCGGUGGCGCGAUUGCGCCAACGUUCUCAACUAUGACACGCAAAACGCGUGCUCCGUUGAAUGGAGUUUAUCAUG [C14U C32U U61C A91U] cannot be ordered by “polymerase ribozyme fitness (log ratio)” value: no more than -4.2 for the first, no more than -4.2 for the second.

Going from GGAUCUUCUCGAUUUAACAAAAAAGACAAAUCUGCCACAAAGCUUGAGAGCAUCUUCGGAUGCAGAGGCGGCAGCCUUCGGUGGCGCGAUGGCGCCAACGUUCUCAACUAUGACAUGCAAAACGCGUGCUCCGAUGAAUGGAGUUUAUCAUG [C14U A91G C116U U134A] to GGAUCUUCUCGAUUUAACAAAAAAGGCAAAUCUGCCAUAAAGCUUGAGAGCAUCUUCGGAGGCAGAGGCGGCAGCCUUCGGUGGCGAGAAAGCGCCAACGUUCUCAACUAUGACACGCAAAACGCGUGCUCCGUUGAAUGGAGUUUAUCAUG [C14U A26G C38U U61G C87A U90A], the “polymerase ribozyme fitness (log ratio)” value rises from no more than -4.2 to -3.51.

GGAUCUUCUCGAUGUAACAAAAAAGACAAAUCUGCCACAAAGCUUGAGAGCAUCUUCGGAUGCAGAGGCGGCAGCCUUCGGUGGCGCGAUAGCGCCAACGUUCUCAACUAUGACACGCAAAACGCGUGCUCCGUUGAACGGAGUUUAUCAUG [C14G U139C] and GGAUCUUCUCGAUUUAACAAAAAAGACAAAUCUGCCACAAUGCUUGAGAGCAUCUUCGGAUGCAGAGGAGGCAGCCUUCGGUGGUGCGAUAGCGCCAACGUUCUCAACUAUGACACGCAAAACGCGUGCUCCGUUGAAUGGAGUUUAUCAUG [C14U A41U C69A C85U] cannot be ordered by “polymerase ribozyme fitness (log ratio)” value: no more than -4.2 for the first, no more than -4.2 for the second.

GGAUCUUCUCGAUUUAACAAAAUAGACAAAUCUGCCCCAAAGCUUGAGAGCGUCUUCCGAUGCAGAGGCGGCAGCCUUCGGUGGGGCGAUAGCGCCAACGUUCUCAACUAUGACACGCCAAACGCGUGCUCCGUUGUAUGGAGUUUAUCAUG [C14U A23U A37C A52G G58C C85G A119C A137U] and GGAUCUUCUCGAUUUAACAAAAAAGACAAAUCUGCCACAAAGCUUGAGAGCUUCUUCGGAUGCAGAGGCGGCAGCCUUCGGUGGGGCGAUAGCGCCAACGUUCUCAACUAUGACACGCAAAACGCGUGCUCCCUUGAAUGGGGUUUAUCAUG [C14U A52U C85G G133C A142G] cannot be ordered by “polymerase ribozyme fitness (log ratio)” value: no more than -4.2 for the first, no more than -4.2 for the second.

First: GGAUCUUCUCGAUUUAACAAAAAAGACAAAUCUGCCACAAAGCUUGAGAGCAUCUUCGGAUGCAGUGGCGGCAGCCUCCGGUGGCGCGAUAGCGCCAACGUUCUCAACUAUGACACGCAAAACGCGUGCUCCGUUGAAUGGAGUUUAUCAUG [C14U A66U U78C]
Second: GGAUCUUCUCGAUUUAACAAAAAAGACAAAUCUGCCACAAAGCUUGAGGGCAACUUCGGAUGCAGAGGCGGCAGCCUUCGGUGGUGCGAUAGCGCCAACGUUCUCAACUAUGACAAGCAAAACGCGUGCUCCGUUGAAUGGAGUUUAUCAUG [C14U A49G U53A C85U C116A]
The “polymerase ribozyme fitness (log ratio)” value of the first is lower: no more than -4.2 for the first, -3.48 for the second.

Compared with GGAUCUUCUCGAUGUAACAAAAAAGACAAAUCUGCCACAAAGCUUGAGAGCAUCAUCGGAUGCAGAGGCGGCAGCCUUCGGUGGCGCGAUAGCGCCAACGUUCUCAACUAUGACACGCAAAACGCGUGCUCCGUUGAAUGGAGUUUAUCAUG [C14G U55A], GGAUCUUCUCGAUGUAACAAAAAAGACAAAUCUGCCACAAAGCUUGAGAGCAUCUUCGGAUGCAGAGGCGGCAGCCGUCUGUGGAGCGAUAGCGCCAACGUUCUCAACUAUGACACGCAAAACGCGUGCUCCGUUGAAUGGAGUUUAUCAUG [C14G U77G G80U C85A] is lower in “polymerase ribozyme fitness (log ratio)” value: -2.86 for the first, no more than -4.2 for the second.

With GGAUCUUCUCGAUUUAACAAAAAAGACAAAUCUGCCACAUUGCUUGAGUGCAUCUUCGGAUGCAGAGGCGGCGGCCUUCGGUGGCGCGAUAACGCCAACGUUCUCAACUAUGACACGCAAAACGUGUGCUCCGUUGAAUGGAGUUUAUCAUG [C14U A40U A41U A49U A73G G92A C125U] the “polymerase ribozyme fitness (log ratio)” value was -4.11.
